# B1: human ALDH9A1 (enzyme, UniProt P49189 1-494, looked up)
# chain: MSTGTFVVSQPLNYRGGARVEPADASGTEKAFEPATGRVIATFTCSGEKEVNLAVQNAKAAFKIWSQKSGMERCRILLEAARIIREREDEIATMECINNGKSIFEARLDIDISWQCLEYYAGLAASMAGEHIQLPGGSFGYTRREPLGVCVGIGAWNYPFQIASWKSAPALACGNAMVFKPSPFTPVSALLLAEIYSEAGVPPGLFNVVQGGAATGQFLCQHPDVAKVSFTGSVPTGMKIMEMSAKGIKPVTLELGGKSPLIIFSDCDMNNAVKGALMANFLTQGQVCCNGTRVFVQKEILDKFTEEVVKQTQRIKIGDPLLEDTRMGPLINRPHLERVLGFVKVAKEQGAKVLCGGDIYVPEDPKLKDGYYMRPCVLTNCRDDMTCVKEEIFGPVMSILSFDTEAEVLERANDTTFGLAAGVFTRDIQRAHRVVAELQAGTCFINNYNVSPVELPFGGYKKSGFGRENGRVTIEYYSQLKTVCVEMGDVESAF
# notes: Human ALDH9A1, a protein of 494 amino acids; the ORF was amplified with gene-specific primers and ligated into pCDFDuet (BamHI, XhoI); Monomer of 55.4 kDa including the His-tag; cloning into the BamHI site of pCDFDuet would place a His6 tag at the N-terminus (surmised); Residues 232-256 are disordered in the crystal structures; also called HsALDH9A1; TMABALDH; source: E. coli (T7 express; …)
# Molecular target: the molecule itself
# Assay: crystal structure; three crystal forms (P2(1)2(1)2, P2(1), C2) at 2.5, 2.9 and 2.3 Å; co-crystallised with 50 mM NAD+ with or without 10 mM TMABA, PEG 4000, 0.1 M sodium citrate pH 5.6; apoform seen; tetramer as dimer-of-dimers
protein,measurement,value
B1,stoichiometry N,4

# — publication PMC6487263, “Kinetic and structural analysis of human ALDH9A1” (Bioscience Reports, 2019)
